Assay: yeast display, Sf9 membrane polyspecificity reagent, FACS + sequencing; frameworks hold sequencing errors
Procedure, shortened: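 A synthetic nanobody library was expressed on Saccharomyces cerevisiae BJ5465 by galactose induction for 36–48 hours. The library was stained for 1 hour at 4 °C with 10% biotinylated, detergent-solubilized Sf9 membrane reagent and enriched with streptavidin microbeads before FACS. Low and high (top ~1%) gates were set on anti-HA fluorescence for expression and streptavidin fluorescence for reagent binding, and each polyreactivity label reflects the gate of origin.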

Row | Sequence | polyreactivity (PSR sort gate)
1 | QVQLVVSGGGLVQAGGSLRLSCAASGRTFRSYAMGWYRQEPGKERELVAAISDGGSTNYADSVKGRFTISRDNAKNTVYLQMNSLKPEDTAVYYCAAEFFFAVFRFYYWGQGTQVTVSS | low polyreactivity
2 | QVQLVESGGGLVQAGGSLRLSCAASGSIFDSNAMGWYRQAPGKERELVAAITVSGGDTYYADSVKGRFTISRDNAKNTVYLQMISLKPEDTAVYYCAKQWFTYPYYYWGQGSQVTVSS | high polyreactivity
3 | QVQLVESGGGLVQAGGSLRLSCAASGGIFRINAMGWYRQAPGKERELVAAITSSVGSTYYADSVKGRFTISRDNAKNTVYLQMNSLKPEDTAVYYCAAVITRDAIVFSTEYDYWGQGTQVTVSS | low polyreactivity
4 | QVQLVESGGGLVQAGGSLRLSCAASGRIFGPYAMGWYRQAPGKERELVASISYSGGSTYYADSVKGRFTISRDNAKNTVYLQMNSLKPEDTAVYYCAKGGYWRGYNYYYWGQGTQVTVSS | low polyreactivity
5 | QVQLVESGVGLLQAGGSLRLSCAASGFIFSFYAMGWYRQAPGKERELVAGISQSGGRTYYADSVKGRFTISRDNAKNNVFLQMNSLKPEDTAVYYCAAQWYYSLYVSGDYWGQGTQVTVSS | high polyreactivity
6 | QVQIVESGGGLVQAGGSRRFSCAASGGTFNWNAMGWYRQAPGKERELFAAINRTGGSTYYADSVKARFTISRDNAMNTVYLQMNSLKPEDTAVYYCAKRYYRFYLGWPPEDSWGQGTQVSVSS | low polyreactivity
7 | QVQLVESGGGLVQAGGSLRLSCAASGIFFQQYAMGWYRLAPGKERELVAAISRGGTRTYYADSVKGRFTISRDNAKNTGYLQMNSLKPEDTAVYYCAADRGYVSYDYWGQGTQVTVSS | high polyreactivity
8 | QVQLVESGGGLVQAGGSLRLSCAASGYIYNGYAMGWYRQAPGKERELVAAIDWSGGSTYYADSVKGRFTISRDNAKNTVYLQMNSLKPEDTAVYYCNASEWLSASYYWGQGTQVTVSS | high polyreactivity
9 | QVQLVESGGGLVQAGGSLRFSCAASGFTFSYYAMGCYRQAPGKERELVAAISWSGGSTYYADSVKGRFTISRDTAKNTVYLQMNSLKPEDTAVYYCAAYLFYSSRSSYYGYDYWGQGTQVTVSS | high polyreactivity
10 | QVQLVESGGGLVQAGGSLRLSCAASGYISGVYPMGWYRQAPGKERELVAAITKRGGNTYYADSVKGRFTISRDNAKNTVYLQMNSLKAEDTAVYYCAKKTAGHPWGPIYDYWGQGTQVTVSS | high polyreactivity
11 | QVQLVESGGGLVQAGGSLRLSCAASGSTLDRNTMGWYRAAPGKESELVAAITWSGGRTYYADSVKGRFTISRDNANNSVYLQLNSLKPEDTAVYYCNKDYWKRPVDEYDYWGQGTQVTVSS | high polyreactivity
12 | QVQLVESGGGLVQAGGSLRLSCAASGTFARYAMGWYRQAPGKERELVAAITRRGGNTYYADSVKGRFTISRDNAKNTVYLQMNSLKPEDTAVYYCARDYYYNYWWMDYWGQGTQVTVSS | high polyreactivity
13 | QVQLEESGGGLVQAGGSLRLSCAASGRTLSHYAKGWYRKAPGKERELVAAITRSGGSTYYADSVKGRFTISRDNAKNTVYLQMNRLKPEDTAVYYWNKTLYTSYDFWGQGTQVTVSS | low polyreactivity
14 | QVQLVESGGGLVQAGGSLRLSCAASRYYAMGWYRQAPGKERELVPAITWSGGTTYYADSVKGRFTISRYNGKNTVYLQMNSLTPEDTAVYYCNADFVRFTRHKKYYYWGQGTQVTVSS | low polyreactivity
15 | QVQLVESGGGLVQAGGSLRLSCAASGSIFADYAMGWYRQAPGKERELVAGISGRGGRTYYADSVKGRFTISRDYAKNTVYLQMNSLKPEDTAVYYCAAKYNYYTWPTRYTATGYYYWGQGTQVTVSS | high polyreactivity
16 | QVQLVESGGGLVQAGGSLRLSCAASGSIFYQNAMGWYRQAPGKERELVAAITWRSGSTYYADSVKGRFTISRDNAKNTVDLQMNSLKPEDTAVYYCAADLLISPEFYYWGQGTQVTVSS | high polyreactivity
17 | QVQLVESGGALVQAGGSLRLSCAASGYTFCYNAMGWYRQAPGKEREFVAAISWSGGSTYYADSVKGRFTISRDNAKNTVYLQMYSLKPEDTAVYYCAVEGVYWYVSMYYWGQGTQVTVSS | low polyreactivity
18 | QVQLVESGGGLVQAGGSLRLSCASSGRTFYQNAMGWYRQAPGKESEFVAAITGGTGSTHYADSVKGRFTISRDNAKNTVYLQMNSLKPEDTAVYYCATRYLFGFSRYDYWGQGTQVTVSS | low polyreactivity
19 | QVQLVESGGGLVQAGGRLRLSCAASGIIFSFYTMGWYIQAPGKERELVAAITWSGGSTYYADSVKGRFTISRDNAKNTVYFQMNSLKPEDTSVYYCNARNPWSKRSQGYSWGQGTQVTVSS | low polyreactivity
20 | QVQLVESGGGLVQAGGSLRLSCAASGITLVANTMGWYRQAPGKERELVATITSSGGSTYYADSVKGRFTISRDNAMNTVYLQMISLKPEDTAVYYCAASDLRYRGNYVYLPSEYWGQGTQVNVSS | low polyreactivity
21 | QVQLVESGGGLVQAGGSLRLSCAASGSIFSYYVMGWYRQAPGKERELVAAITSSGGSTYYADSVKGRFTISRDNAKNTVYLQMNSLKTEDTAVYYCAAYQRSQDRSYPGYEYWGQGTQVTVSS | high polyreactivity
22 | QVQLVESGGGLVQAGGSLRLSCAASGFTLQPYAMGWYRQAPGKERELVAAISSRGGRTYYADSVKGRFTISRDNAKNTVYLQMNSLKPEDTAVYYCAATGGYVYPRSRLYYYWGQGNQVTVSS | high polyreactivity

Row | Sequence | polyreactivity (PSR sort gate)
23 | QVQLVESGGGLVQAGGSLRLSCAASGYTFGYYAMGWYRQAPGKERELVAAISLNGGSTYYADSVKGRFTISRDNAKNTVYLQMNSLKPEDSAVYYCNALYNYAEIYGRGYCGQGTQVTVSS | high polyreactivity
24 | QVQLVESGGGLVQAGGSLRLSCAASGFTFDGYGMGWYRQAPGKERELVAVITSGGSTKYADSVKGRFTISRDNAKNTVYLQMNSLKPEDTAVYYCAADNRIRGVAFDYWGQGTKVTVSS | low polyreactivity
25 | QVQLVESGGGLVQAGGSLRLSCAASGRTFSVYAMGWYRQATGKEREFVAAISFSGGRTYYADSVKGRFTISRDNAKNTVYLQINSLKPEDTAVYYCAKRGSYYNPMGYWGQGTQVTVSS | high polyreactivity
26 | QVQLVESGRGLVQAGGSLRLSCAASGSIFNAYAMGWYRQAPGKERELVADISKRTSYADSVKGRFTISRDNAKNTVYLQMNSLKPEDTADYYCAKEVDEPDGYEYDYWGQGTQVTVSS | low polyreactivity
27 | QVQLVESGGGLVQAGGSLRLSCAASGNIFLYYDMGWYRQAPGKERELVADIDSSGASTYYADSVKGRFTISRDNAKNTVYLQMNSLKPEDTAVYYCAAELHWWYAGYEYGYWGQGTQVTVSS | low polyreactivity
28 | PVLLVECGGALVQAGGSLRLTSAASGRIIKLYAMGWYRQAPGKVREFVAALTRSGARTYYADSVKGRFTISRDNAKNTVYFQMYSMKPEDSAVYSCAAYDTYDWYDYWGQGTQVTVSS | high polyreactivity
29 | QFQLVESGGGLVQAGGSLRLSCAASRYTFTLYAMGCYRQAPGKVRELVAAISWSSGSTYYADSVKGRFTISRDNEKNTVYLQMNSLKPEDTAVYYCNARRFGLTQYYYWGQGTQVTVSS | low polyreactivity
30 | QVQLVESGGGLVQAGGSLRLSCAASGFTFNYYAMGWYRQAPGTERELVAAITSSGGSTYYADSVKGRFTISRDNAKNTVYLLMNSLKPEDTAVYYCNAAVYDHRYIYGFDYWGQGTQVTVSS | high polyreactivity
31 | QVQLVESGGGLFQAGGSLRLSCAASGRIFQYHAMGWYRQAPGKERELVAAIRRGRGSTYYADSVKGRFTISRDYAKNTVYLQMNSLKPVDTAVYYCAARRKRVSFYPEYDFWGQGTQVTVSS | low polyreactivity
32 | QVQLVESGGGLVQAGGSLRLSCAASGSIFDDYAMGWYRQAPGKERELVAANSGSGDITYYADSVKGRFTISRDNAKNTFYLQMNSLKPEDTAVYYCAAESVYTFYWGQGTQVTVSS | high polyreactivity
33 | QVQLVESGGGLVQAGGSLRLSCAASGSIFLDNAMGWYRQAPGKERELVAAISWSAGSTYYADSVKGRFTISRDNAKNTVYLQMNSLKPEDTAVYYCAAESYPGWYWDDYWGQGTQVTVSS | high polyreactivity
34 | QVQIVESGGGLVQAGGSLRLSCAASGSTFGKYAMGWYRQAPGKERELVAAITRRTGSTYYADSVKGRFTISRDNAKNTVYLQMNSLKPEDTAVYYCAARLPQYRYDYWGQGTQVTVSS | high polyreactivity
35 | QVQLVESGGGLVQAGGSLRLSCAASGRIIGYYAMGWYRQAPGKERELVAAITSSGSRTYYADSVKGRFTISRDNAKNTVYLQMNSLKPEDTAVYYCATTKVYYSSKSSYYYWGQGTQVTVSS | high polyreactivity
36 | QVQLVESGGGLVQAGGSLRLSCAASGLTSYSYAMGWYRPAPGKERELVAAITVNGGRTYYADSVKGRFTISRDNAKNTVYLQMNSLKPEDTAVYYCAAREVTGRPRSYYYWGQGTQVTVSS | low polyreactivity
37 | QVQLVESGGGLVQAGGSLRLSCAASGSTFWNAMGWYRQAPGKERELVAAIRLSGGSTYYADSVKGRFTISRDNAKNTVYLQMNRLKPEDTAVYYCATDLVFVSSDLQETAYYWGQGTQVTVSS | low polyreactivity
38 | QVQLVESGGGLVQAGGSLRLSCAASGITFYDYPMGWYRQAPGKERELVAAITSSGGRTYYADSVKGRFTISRDNAKNTVYLQMNSLKPEDTAVYYCAASTYPHEYDYWGQGTQVTVSS | low polyreactivity
39 | QVQLVESGGGLVQAGGRLRLSCAASGFIFTPYTMGWYRQSPGTERELVAAITDGSSTYYADSVNGRFTISRDNAKNTVNLQMNSLKPEDTAVYYCNADGKQPYISWLYDYWGQGTQVTVSS | low polyreactivity
40 | QVQLVESGGGLVQAGGSLRLSSAASGITFSEYAMGRYRQAPGKERELVATITSGGSTNYADSVKGRFTISRDNAKNTVYLQMNSLKPEDTAVYYCNALDGTVDFSGWYDDWGQGTQVTVSS | low polyreactivity
41 | QVQLVQTGRGLVQAGGSLRLICAASANIFYTNAMGWYRQAPGKERELVAAISGSGGRTYYADSVKGRFTISRDNAKNTVYLQMNSLKPEDTAVYYFNAVRRDYYDRTYGYWGQGTQVTVSS | low polyreactivity
42 | QVQLVESGGGLVQAGGSLRLSCAASGRTFIPYAMGCYRPAPGKERELVAAIRSGASTNYADSVKGRFTISRDNAKITVYLQMNSLNPEDTAVYYCNADFLGGTWFDYWGQGTQVTVSS | high polyreactivity
43 | QVQLVESGGGLVQAGGSLRLSCAASGISFSYYAMGWYRQAPGKERELVAAITSSGGSTYYADSVKGRFTISRDNEKNTVYLQMTSLKPEDTAVYYCNAKRAPWGTLYNYWGLGTQVTVSS | high polyreactivity

Source: the nanobody polyreactivity screen of Harvey et al. (2022)
